From patent publication US20260209306A1 (ALIVEGEN, published 2026)

T1: activin B (UniProt P09529 293-407)
T1 sequence (looked up): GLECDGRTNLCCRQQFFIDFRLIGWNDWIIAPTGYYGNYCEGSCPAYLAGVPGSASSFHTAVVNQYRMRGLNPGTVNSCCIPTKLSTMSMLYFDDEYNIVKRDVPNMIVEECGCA

T2: myostatin (UniProt O14793 267-375)
T2 sequence (looked up): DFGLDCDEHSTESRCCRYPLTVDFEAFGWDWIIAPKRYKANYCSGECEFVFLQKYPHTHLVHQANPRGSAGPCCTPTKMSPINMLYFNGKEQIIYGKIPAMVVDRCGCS

T3: activin A (UniProt P08476 311-426)
T3 sequence (looked up): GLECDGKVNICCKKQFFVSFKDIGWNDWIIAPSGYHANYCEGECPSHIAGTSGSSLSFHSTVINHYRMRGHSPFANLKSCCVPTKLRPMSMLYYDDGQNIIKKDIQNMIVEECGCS

T4: BMP9 (UniProt Q9UK05 320-429)
T4 sequence (looked up): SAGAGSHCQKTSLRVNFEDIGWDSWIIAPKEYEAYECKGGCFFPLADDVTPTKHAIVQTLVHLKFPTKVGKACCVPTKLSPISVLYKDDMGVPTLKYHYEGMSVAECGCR


Legend:
activin B = target: T1, activin B; experiment: cell-based or functional assay
myostatin [1] = target: T2, myostatin; experiment: cell-based or functional assay
activin A = target: T3, activin A; experiment: cell-based or functional assay
BMP9 [2] = target: T4, BMP9; experiment: cell-based or functional assay
BMP9 [3] = target: T4, BMP9; experiment: Octet Red BLI; trap loaded on AHC biosensor
Protocol: (§1) Myostatin and BMP9 binding activities of various hybrid ActRIIB ligand trap proteins were initially analyzed using Octect Red (ForteBio). Purified proteins or conditioned media were individually loaded to AHC biosensors with maximum loading. Following a baseline washing phase, the sensors were exposed to 10 nM myostatin or BMP9, respectively, for an association step followed by a dissociation step. All experiments were performed with shaking at 1,000 rpm. Binding activity was analyzed using ForteBio's software with KD being calculated using the ratio Kd/Ka.

myostatin [4] = target: T2, myostatin; experiment: Octet Red BLI; protein on AHC biosensor, 10 nM ligand; legend +++ KD <10^-8M
Protocol: as §1

Cell-Based IC50 (nM) Against Activin B; C2C12-CAGA-luc reporter (activin B) [nM] | Cell-Based IC50 (nM) Against Myostatin; C2C12-CAGA-luc reporter (myostatin [1]) [nM] | Cell-Based IC50 (nM) Against Activin A; C2C12-CAGA-luc reporter (activin A) [nM] | Cell-Based IC50 (nM) Against BMP9; C2C12-BRE-luc reporter (BMP9 [2]) [nM] | binding result (BMP9 [3]) | KD (myostatin [4]) [nM] | Binder
1.04 | 1.24 | 1.27 | 3.4 | – | – | wild-type ActRIIB-ECD-Fc fusion protein (Fc fusion, not shown: a dimerising Fc or GST) ETRECIYYNANWELERTNQSGLERCEGEQDKRLHCYASWRNSSGTIELVKKGCWLDDFNCYDRQECVATEENPQVYFCCCEGNFCNERFTHLPEAGGPEVTYEPPPTAPTGGGGSESKYGPPCPPCP
2.1 | 0.95 | 1.15 | – | – | – | AG-0014 hybrid ActRIIB ligand trap protein (Fc fusion, not shown: a dimerising Fc or GST) ETRECIYYNANWELERTNQSGLERCYGDKDKRRHCYASWRNSSGTIELVKKGCWLDDFNCYDRQECVATEENPQVYFCCCEGNFCNERFTHLPEAGGPEVTYEPPPTAPTGGGGSESKYGPPCPPCP
1.3 | 1.14 | 1.62 | – | – | – | AG-0027 hybrid ActRIIB ligand trap protein (Fc fusion, not shown: a dimerising Fc or GST) ETRECIYYNANWELERTNQSGLERCEGDQDKRLHCYASWRNSSGTIELVKKGCWLDDINCYDRQECVATKENPQVYFCCCEGNFCNERFTHLPEAGGPEVTYEPPPTAPTGGGGSESKYGPPCPPCP
– | – | – | – | no binding (tested: 10 nM BMP9) | < 10 | AG-0011 hybrid ActRIIB ligand trap protein (Fc fusion, ECD - linker - hinge linker - Fc; signal peptide left out; not shown: human Fc domain) ETRECIYYNANWELERTNQSGLERCEGDQDKRLHCYASWRNSSGTIELVKKGCWLDDFNCYDRQECVEKKDSPEVYFCCCEGNMCNERFTHLPEAGGPEVTYEPPPTAPTGGGGSESKYGPPCPPCP
